The DeepSol protein solubility set

Assay: soluble on expression in E. coli; label from the status in PepcDB or PDB records

Row | Sequence | soluble on expression in E. coli
1 | QALIKEARLTPKPGLVDSTNNGSHQDMSLSTFEQSAIALRPFFTQFVLMGIETTNLPDSHILSKIRPLGLQAEQAMFVATNQVNTHKGAIFAFGLVCTALGRHFSRWQNKMMSSPSFEISQDTTGISLISETVARFTQGITDELKNYSKNQPLTAGITLYQQYGFTGARGEAEKGFPLVQQAVVFILSQAESEMRWYWALLYLMANNNDTNIVHRGGINGLQFIQDEAHKRLGNAKNLQNANALMASLREFDDDCIARNLSPGGSADLLALTIFFLSLLYC | not soluble
2 | LSNLPRVKHTLVPPPFAHAHEQVAASGPVINEFEMRIIEKEVQLDEDAYLQAMTFDGSIPGPLMIVHEGDYVELTLINPPENTMPHNIDFHAATGALGGGGLTLINPGEKVVLRFKATRAGAFVYHCAPGGPMIPWHVVSGMAGCIMVLPRDGLKDHEGKPVRYDTVYYIGESDHYIPKDEDGTYMRFSDPSEGYEDMVAVMDTLIPSHIVFNGAVGALTGEGALKAKVGDNVLFVHSQPNRDSRPALIGGHGDLVWETGKFHNAPERDLETWFIRGGTAGAALYKFLQPGVYAYVNHNLIEAVHKGATAHVLVEGEWDNDLMEQVVAPVGLTG | soluble
3 | MIHVREFQASDSDVVLHLLDLKDIINSSSFSEKVFQLSESGDFLGLVAEANQSGKHQVVGCAFLRLLETISRGLHCQIEELAIDKAWLHQGVGKSLMETATSWAKERGVGDIYVDSPYASIAVKEGIDSVFVRDEVLEVAQQYEAEKEELQESLKKQYNTTISKLEKEYEAKKQQQDETIHNLQTQLEDATQYLEEQQAEENELLNIDPSSPRNHTGPYPRGRGFWGTLCFPIRKTCGPGSCLRLPSGPASVRGSTDRSN | soluble
4 | SMIPEVQKPLHEQLWYHGAIPRAEVAELLVHSGDFLVRESQGKQEYVLSVLWDGLPRHFIIQSLDNLYRLEGEGFPSIPLLIDHLLSTQQPLTKKSGVVLHRAVPKDKWVLNHEDLVLGEQIGRGNFGEVFSGRLRADNTLVAVKSCRETLPPDLKAKFLQEARILKQYSHPNIVRLIGVCTQKQPIYIVMELVQGGDFLTFLRTEGARLRVKTLLQMVGDAAAGMEYLESKCCIHRDLAARNCLVTEKNVLKISDFGMSREEADGVYAASGGLRQVPVKWTAPEALNYGRYSSESDVWSFGILLWETFSLGASPYPNLSNQQTREFVEKGGRLPCPELCPDAVFRLMEQCWAYEPGQRPSFSTIYQELQSIRKRHR | soluble
5 | MKIVEVKHPLVKHKLGLMREQDISTKRFRELASEVGSLLTYEATADLETEKVTIEGWNGPVEIDQIKGKKITVVPILRAGLGMMDGVLENVPSARISVVGMYRNEETLEPVPYFQKLVSNIDERMALIVDPMLATGGSVIATIDLLKKAGCSSIKVLVLVAAPEGIAALEKAHPDVELYTASIDQGLNEHGYIIPGLGDAGDKIFGTK | soluble
6 | MLPKTWRENFFVLVREVKNLRATAKKISRHFFRKYEPQPGVFWFVFHLSRSHPFPFLKPLLSGDQARGAATPTPCMRTHLFHRIDPIKSEMGGLSTGYITFVWRGVHPRIGPIAAESLTDGKEEDEALSCGYII | not soluble
7 | MNHTADNCIFCKIIDGQILCSKVYEDEHVLAFLDISQVTKGHTLVIPKVHKQDIFALTPEIASHIFSVVPKIANAIKAEFNPVGFNLLNNNGEKAGQTVFHFHLHLIPRYGENDGFGAVWKSHQNEYTMENLQNIASTIANSVK | not soluble
8 | MGSDKIHHHHHHLIPVLDTDAWVEKLLSTRRSAEGKILAFYEHRMEAICRDPRLLLMPADDHLAHRGDGVFESMKFEGRRLYQLDAHLERMERSARGIYLTPPCTQSVLRDIVLQVARAADTPDGCIRILLGRGPGGFGIDPAECPVPSLYVVAYSLTPKPEEWYEKGVTAFRTSIPAKQGYLATIKNANYIPNVLMKLEARSRGCDIPVSFDENDFIAEGPTENLCLVDADGTLVVPEFTNALSGTTIMRVIDLVRDEMNVAFRKVREDELYRAAEVMVLGTTTECVSVVSFEGQPVGGGRPGPVARRFRELLRRDLAENGISF | not soluble
9 | MSLKPSDAEEARTEAFLVKLREFLDTVDGSVIERAAQIPDEYVKGLAELGCFGLKIPSEYGGLNMSQVAYNRVLMMVTTVHSSLGALLSAHQSIGVPEPLKLAGTAEQKRRFLPRCAAGAISAFLLTEPDVGSDPARMASTATPIDDGQAYELEGVKLWTTNGVVADLLVVMARVPRSEGHRGGISAFVVEADSPGITVERRNKFMGLRGIENGVTRLHRVRVPKDNLIGREGDGLKIALTTLNAGRLSLPAIATGVAKQALKIAREWSVERVQWGKPVGQHEAVASKISFIAATNYALDAVVELSSQMADEGRNDIRIEAALAKLWSSEMACLVGDELLQIRGGRGYETAESLAARGERAVPVEQMVRDLRINRIFEGSSEIMRLLIAREAVDAHLTAAGDLANPKADLRQKAAAAAGASGFYAKWLPKLVFGEGQLPTTYREFGALATHLRFVERSSRKLARNTFYGMARWQASLEKKQGFLGRIVDIGAELFAISAACVRAEAQRTADPVEGEQAYELAEAFCQQATLRVEALFDALWSNTDSIDVRLANDVLEGRYTWLEQGEGHHHHHH | not soluble
10 | LAQRAGILCREFAIGFGPKIFSFKKNETVYTIRLLPVGGFVRMAGEDPEMIEVKPGYTVGLLFNKEDQVEKVIINQKEKYPDALVIEVETADLEHDMKITGYEQGKEDELSSFTVSETSFFIVDGEEVQIAPYNRQFGSKPVWQRIKA | not soluble
11 | EERNDWHFNIGAMYEIENVEGYGEDMDGLAEPSVYFNAANGPWRIALAYYQEGPVDYSAGKRGTWFDRPELEVHYQFLENDDFSFGLTGGFRNYGYHYVDEPGKDTANMQRWKIAPDWDVKLTDDLRFNGWLSMYKFANDLNTTGYADTRVETETGLQYTFNETVALRVNYYLERGFNMDDSRNNGEFSTQEIRAYLPLTLGNHSVTPYTRIGLDRWSNWDWQDDIEREGHDFNRVGLFYGYDFQNGLSVSLEYAFEWQDHDEGDSDKFHYAGVGVNYSFHHHHHH | soluble
12 | MSLEQPGFKLRAVTIHFEASADVDSIEDAVFKAKEAIDRLTAEKGVEVWSLRAVLTPGESVADSLGRVAELEPLVEEEGVFINLGLHNASADDWEAVSGIVESGFFLSFALENGTWEEARSYSKLLHRLADKSPDLAVHIGFNPLGTHILTPYFPLATSPGEQRTVTVALLYPRYLLESFRKGGLQAVIDSMVDAAQLSGEYGKAVAKDVEGSFAGVDLSISPWMEESSLALVEEVGGVRLPEPGFAYGLRLVNEAIAAAASKTGYAVGFNEVQLPVAEDSKLKVRVAELETSARDLLRLSGVCLAGLDMAVIPASLDGVAGLLLEARAYSRAKGSIVGVRLIPLDGVEPGDEVFLKRFGEVPVIPIEGHHHHHH | not soluble
13 | SLPTLVTTQASDIDGSTLLSSQKGSGLGDCDSDARWTWDGRRFVPTSTSTSGLCRLVAAGGAWELPTLVTEVKSSP | soluble
14 | GKEHILVCISPSQGNEKVIRTAARMAEALKGKLTAVFVETPEYEESSIKEQESLRKNLRLAEQLGAQISSVYGEDISQQLAEYANVSQATKIILGRSSKRKSWLKPKLVDKLSEQIDSTDIYIIPDTQP | not soluble
15 | MPLRHWGMARGSKPVGDGAQPMAAMGGLKVLLHWAGPGGGEPWVTFSESSLTAEEVCIHIAHKVGITPPCFNLFALFDAQAQVWLPPNHILEIPRDASLMLYFRIRFYFRNWHGMNPREPAVYRCGPPGTEASSDQTAQGMQLLDPASFEYLFEQGKHEFVNDVASLWELSTEEEIHHFKNESLGMAFLHLCHLALRHGIPLEEVAKKTSFKDCIPRSFRRHIRQHSALTRLRLRNVFRRFLRDFQPGRLSQQMVMVKYLATLERLAPRFGTERVPVCHLRLLAQAEGEPCYIRDSGVAPTDPGPESAAGPPTHEVLVTGTGGIQWWPVEEEVNKEEGSSGSSGRNPQASLFGKKAKAHKAVGQPADRPREPLWAYFCDFRDITHVVLKEHCVSIHRQDNKCLELSLPSRAAALSFVSLVDGYFRLTADSSHYLCHEVAPPRLVMSIRDGIHGPLLEPFVQAKLRPEDGLYLIHWSTSHPYRLILTVAQRSQAPDGMQSLRLRKFPIEQQDGAFVLEGWGRSFPSVRELGAALQGCLLRAGDDCFSLRRCCLPQPGETSNLIIMRGARASPRTLNLSQLSFHRVDQKEITQLSHLGQGTRTNVYEGRLRVEGSGDPEEGKMDDEDPLVPGRDRGQELRVVLKVLDPSHHDIALAFYETASLMSQVSHTHLAFVHGVCVRGPENIMVTEYVEHGPLDVWLRRERGHVPMAWKMVVAQQLASALSYLENKNLVHGNVCGRNILLARLGLAEGTSPFIKLSDPGVGLGALSREERVERIPWLAPECLPGGANSLSTAMDKWGFGATLLEICFDGEAPLQSRSPSEKEHFYQRQHRLPEPSCPQLATLTSQCLTYEPTQRPSFRTILRDLTRLQPHNLADVLTVNPDSPASDPTVFHKRYLKKIRDLGEGHFGKVSLYCYDPTNDGTGEMVAVKALKADCGPQHRSGWKQEIDILRTLYHEHIIKYKGCCEDQGEKSLQLVMEYVPLGSLRDYLPRHSIGLAQLLLFAQQICEGMAYLHSQHYIHRDLAARNVLLDNDRLVKIGDFGLAKAVPEGHEYYRVREDGDSPVFWYAPECLKEYKFYYASDVWSFGVTLYELLTHCDSSQSPPTKFLELIGIAQGQMTVLRLTELLERGERLPRPDKCPCEVYHLMKNCWETEASFRPTFENLIPILKTVHEKYQGQAPSVFSVC | soluble
16 | MGSSHHHHHHSSGLVPRGSHMEAIGVLMMCPMSTYLEQELDKRFKLFRYWTQPAQRDFLALQAESIRAVVGNSNAGADAELIDALPKLEIVSSFSVGLDKVDLIKCEEKGVRVTNTPDVLTDDVADLAIGLILAVLRRICECDKYVRRGAWKFGDFKLTTKFSGKRVGIIGLGRIGLAVAERAEAFDCPISYFSRSKKPNTNYTYYGSVVELASNSDILVVACPLTPETTHIINREVIDALGPKGVLINIGRGPHVDEPELVSALVEGRLGGAGLDVFEREPEVPEKLFGLENVVLLPHVGSGTVETRKVMADLVVGNLEAHFSGKPLLTPVV | soluble
17 | PLQEERLQRLQDRMVVPFDETRPDHQESLKALWNVAFPNVHLTGLVTEQWKEMGWQGPNPSTDFRGCGFIALENLLFSARTYPVNYSLLLKQRGDRAKWEYPFAVAGINISFMLIQMLDLQNNQDERAFDVLYCIAFAMMDAQWLAMHASYMEFNEVLQATRNQLERELSLDDIHRIQDLPAYNLLFQ | not soluble
18 | MHHHHHHMTSVMSHEFQLATAETWPNPWPMYRALRDHDPVHHVVPPQRPEYDYYVLSRHADVWSAARDHQTFSSAQGLTVNYGELEMIGLHDTPPMVMQDPPVHTEFRKLVSRGFTPRQVETVEPTVRKFVVERLEKLRANGGGDIVTELFKPLPSMVVAHYLGVPEEDWTQFDGWTQAIVAANAVDGATTGALDAVGSMMAYFTGLIERRRTEPADDAISHLVAAGVGADGDTAGTLSILAFTFTMVTGGNDTVTGMLGGSMPLLHRRPDQRRLLLDDPEGIPDAVEELLRLTSPVQGLARTTTRDVTIGDTTIPAGRRVLLLYGSANRDERQYGPDAAELDVTRCPRNILTFSHGAHHCLGAAAARMQCRVALTELLARCPDFEVAESRIVWSGGSYVRRPLSVPFRVTSSR | soluble
19 | MRISLKQLNVFTVIAQEKTMTKAAERLYITKPAVSLSLSELEKNLGYKVFDRVNNRLVLNSEGRQLLPLADELLERAEVIEHQFATDSQLTGSLNIGASDTIGNHIAPVLLSKFQQQYPCDIQQLFISNTAQIINRLLEFQLDIGLVEGKAHHPKLNMIEWRRDDMYLVCSPSHPLATKAQVTLDDLEHSTWLLREEGSGSREYFINHIAANLNDWHESLQLHTTEAIINCCAENMGLACLSQLAAQNAINDGRLVKLAYNKTLARQYWLLVHKEKYQTPLLQYFMNFIQQK | not soluble
